Laboratory results reported in publication PMC12049944.
Values belong to the substance of their own block, whether it stands above or below them.

Legend:
Test in all cases: cross-linking; intermolecular disulfides between Cys residues introduced in helices 4 and 6 of APOA1 in rHDL; SDS-PAGE under reducing and oxidising conditions
[1] = target: APOA1 double Cys mutant Y115C/E147C in rHDL (human)
[2] = target: APOA1 double Cys mutant M112C/M148C in rHDL (human)
[3] = target: APOA1 double Cys mutant K107C/H155C in rHDL (human)
[4] = target: APOA1 double Cys mutant Y100C/M162C in rHDL (human)

- percent of APOA1 remaining monomeric (oxidising conditions) [1]: 10%
Substance: APOA1 double Cys mutant Y115C/E147C in rHDL

- percent dimer (oxidising conditions) [2]: 50%
Substance: APOA1 double Cys mutant M112C/M148C in rHDL

- percent of APOA1 remaining monomeric (oxidising conditions) [3]: 10%
Substance: APOA1 double Cys mutant K107C/H155C in rHDL

- percent of APOA1 remaining monomeric (oxidising conditions) [4]: 10%
Substance: APOA1 double Cys mutant Y100C/M162C in rHDL (natural protein)
